The record followed here is patent US20220249561A1 (SHINSHU UNIVERSITY, published 2022).

The target in one assay is T1, ALK 001P.
T1 construct: ALK (1-19) is described only as a region comprising a secretory signal, and no cleavage site is stated; Expressed in Expi293 cells and captured on a Protein A chip through its Fc
Kind of assay: SPR, Biacore 8K; receptor-Fc captured on Protein A chip, ligand as analyte. As for the experimental part: (§1) Whether or not ALK 001P and LTK 001P obtained in Example 5 had bound to Ligand 001P and Ligand 002P was examined using Biacore 8K instrument (GE Healthcare Japan) by the surface plasmon resonance (SPR) technique.
(§2) ALK 001P and LTK 001P were dissociated (i.e., regenerated) from Protein A coating the sensor chip surface (i.e., regeneration) by injecting 10 mM Glycine-HCl (pH 1.6) at a flow rate of 30 μl/min for 30 seconds. The bond dissociation curve modified by subtracting the baseline value was prepared using Biacore8K Evaluation Software (GE Healthcare Japan).
(In general: In SPR one partner is held on a chip, and binding of the other changes the refractive index at the surface.)

A further assay deals with T2, LTK 001P.
T2 construct: Expressed in Expi293 cells and captured on a Protein A chip through its Fc
The description is as above. The procedure:
as §1, §2

T2 sequence (chain, as listed by the source limits assumed): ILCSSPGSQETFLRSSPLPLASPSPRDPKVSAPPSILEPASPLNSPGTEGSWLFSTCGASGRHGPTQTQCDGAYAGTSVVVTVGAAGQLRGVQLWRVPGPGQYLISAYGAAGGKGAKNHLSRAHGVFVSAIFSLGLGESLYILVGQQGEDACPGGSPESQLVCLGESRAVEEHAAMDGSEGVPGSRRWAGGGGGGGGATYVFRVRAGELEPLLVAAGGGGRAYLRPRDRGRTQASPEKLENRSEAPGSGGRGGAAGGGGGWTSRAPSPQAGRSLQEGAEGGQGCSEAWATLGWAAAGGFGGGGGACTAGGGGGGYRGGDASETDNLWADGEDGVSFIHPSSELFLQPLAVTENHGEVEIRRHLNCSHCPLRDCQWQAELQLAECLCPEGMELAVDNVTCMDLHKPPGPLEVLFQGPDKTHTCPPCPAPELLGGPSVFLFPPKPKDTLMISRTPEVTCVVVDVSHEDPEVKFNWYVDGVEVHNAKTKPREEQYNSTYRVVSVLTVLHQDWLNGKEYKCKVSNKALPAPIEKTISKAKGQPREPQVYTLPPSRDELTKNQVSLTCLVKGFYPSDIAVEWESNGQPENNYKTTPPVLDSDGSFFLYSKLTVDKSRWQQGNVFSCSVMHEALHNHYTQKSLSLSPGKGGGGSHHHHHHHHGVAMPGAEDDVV
T1 sequence (chain, as listed by the source limits assumed): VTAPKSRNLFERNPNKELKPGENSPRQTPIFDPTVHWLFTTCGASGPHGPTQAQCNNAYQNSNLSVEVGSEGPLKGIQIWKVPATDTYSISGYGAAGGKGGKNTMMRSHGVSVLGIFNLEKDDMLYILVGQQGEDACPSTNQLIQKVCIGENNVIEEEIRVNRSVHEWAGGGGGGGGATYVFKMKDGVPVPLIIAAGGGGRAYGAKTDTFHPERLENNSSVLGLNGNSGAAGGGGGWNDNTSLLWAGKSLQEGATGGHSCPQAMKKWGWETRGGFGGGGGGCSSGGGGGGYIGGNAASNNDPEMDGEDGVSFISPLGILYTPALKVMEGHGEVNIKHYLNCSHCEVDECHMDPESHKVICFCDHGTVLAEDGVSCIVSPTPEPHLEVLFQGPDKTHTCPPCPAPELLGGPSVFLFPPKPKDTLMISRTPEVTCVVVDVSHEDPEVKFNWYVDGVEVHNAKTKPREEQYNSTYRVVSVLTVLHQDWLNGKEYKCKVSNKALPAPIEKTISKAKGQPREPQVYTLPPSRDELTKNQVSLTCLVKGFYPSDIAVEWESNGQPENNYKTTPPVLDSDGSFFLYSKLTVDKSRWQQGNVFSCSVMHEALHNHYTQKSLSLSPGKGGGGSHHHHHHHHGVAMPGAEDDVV

B1: Ligand 001P (ligand)
chain: DGHHHHHHGSLQDSEVNQEAKPEVKPEVKPETHINLKVSDGSSEIFFKIKKTTPLRRLMEAFAKRQGKEMDSLTFLYDGIEIQADQTPEDLDMEDNDIIEAHREQIGGLEVLFQGPAAGAGRTPSGSRSAEIFPRDSNLKDKFIKHFTGPVTFSPECSKHFHRLYYNTRECSTPAYYKRCARLLTRLAVSPLCSQT
Turning to B1, the binding result with ALK 001P and with LTK 001P was “binds” in each case.
